From article PMC10952227

Assays:
[1] = biological target: Guanylyl cyclase-A (GC-A), human (human) (UniProt P16066)
[2] = biological target: Guanylyl cyclase-A (GC-A), human (human) (UniProt P16066); assay: radioligand binding; whole GC-A-expressing QBIHEK293A cells; 50 pmol/L 125I-ANP with increasing concentrations of compound #20; DMEM with 1% BSA; 4°C, 1 h

Sequence of UniProt P16066 (P16066 33-473): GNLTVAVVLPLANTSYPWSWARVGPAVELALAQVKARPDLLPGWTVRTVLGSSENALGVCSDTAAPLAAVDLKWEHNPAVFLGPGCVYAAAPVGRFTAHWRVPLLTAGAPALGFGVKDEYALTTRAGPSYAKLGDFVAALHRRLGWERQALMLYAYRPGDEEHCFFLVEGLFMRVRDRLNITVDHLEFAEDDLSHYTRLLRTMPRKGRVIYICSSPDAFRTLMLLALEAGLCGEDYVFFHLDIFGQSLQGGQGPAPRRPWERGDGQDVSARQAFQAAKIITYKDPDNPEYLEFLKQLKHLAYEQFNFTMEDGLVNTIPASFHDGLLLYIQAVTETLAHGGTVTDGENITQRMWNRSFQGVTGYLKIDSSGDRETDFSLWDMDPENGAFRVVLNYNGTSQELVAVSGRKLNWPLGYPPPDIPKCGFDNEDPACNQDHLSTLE

Row | cGMP production (AlphaScreen) in GC-A-expressing QBIHEK293A cells, concentration-response of human BNP without compound: EC50 [1] [nM] | increase of binding by increasing concentrations of compound #20 [2] [%] | Substance
1 | 1 | – | Brain natriuretic peptide (BNP)
2 | – | 71 | ^125I-ANP (peptide)
